Experimental data as given in PMC4926178 (Viruses, 2016).
Read-outs that look alike come from different tables or passages of the source.

Experiments:
Experiment in all cases: ELISA
[1] = biological target: glycosylated soluble gp120 (rgp 120 HIV-1 MN, baculovirus) (HIV-1 MN) (UniProt P05877)
ribonuclease B = biological target: T1, ribonuclease B (UniProt P61823 27-150)
T1 construct: also called RNase B
T1 sequence (looked up): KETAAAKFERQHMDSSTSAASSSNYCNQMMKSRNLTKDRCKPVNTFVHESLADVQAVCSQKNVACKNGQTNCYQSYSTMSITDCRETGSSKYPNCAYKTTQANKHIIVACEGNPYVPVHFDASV

[2] = biological target: glycosylated soluble gp120 (rgp 120 HIV-1 MN, baculovirus) (HIV-1 MN), P05877; conditions: remark: other sources report otherwise

“Nested Cyanovirin-N (Nested CV-N) (from UniProt P81180 1-50; P81180 1-101) (designed binder)” showed an EC50 [1] of 1.29 nM and an EC50 (ribonuclease B) of 13 nM.

B1: wild-type Cyanovirin-N (WT CV-N), P81180 1-101 (natural protein)
chain: LGKFSQTCYNSAIQGSVLTSTCERTNGGYNTSSIDLNSVIENVDGSLKWQPSNFIETCRNTQLAGSSELAAECKTRAQQFVSTKINLDDHIANIDGTLKYE
modifications: here or on the partner: glycosylated (oligomannose glycans; about 25 sites per monomer)
Work on B1 yielded an EC50 [2] of 1.66 nM.

B2: wild-type Cyanovirin-N (WT CV-N) (natural protein)
chain: B1 chain
B2 gave an EC50 (ribonuclease B; both partners purified) of 17 nM.
